Laboratory results published in KR20120134547A.
Bridge positions count the residues as written; N and C are the ends. Ends that are not written are not given here.

Target: TAB-XC154 자가면역항체
Experiment: competition: XC154 antibody (100 ng) pre-incubated with 10^11 or 10^12 XC154p1 phage, then flow cytometry on HepG2 or LnCap-LN3 cells

percent inhibition: > 90%
Binder: CLPSWFHRC (disulfide 1-9 (inferred); also: displayed on phage) [XC154p1 에피토프 발현 파아지 (…)]
